Measured values: patent US20030082746

T1: pro-transglutaminase derived from S. mobaraense IFO13819 (transglutaminase having the pro-structure part)
T1 sequence: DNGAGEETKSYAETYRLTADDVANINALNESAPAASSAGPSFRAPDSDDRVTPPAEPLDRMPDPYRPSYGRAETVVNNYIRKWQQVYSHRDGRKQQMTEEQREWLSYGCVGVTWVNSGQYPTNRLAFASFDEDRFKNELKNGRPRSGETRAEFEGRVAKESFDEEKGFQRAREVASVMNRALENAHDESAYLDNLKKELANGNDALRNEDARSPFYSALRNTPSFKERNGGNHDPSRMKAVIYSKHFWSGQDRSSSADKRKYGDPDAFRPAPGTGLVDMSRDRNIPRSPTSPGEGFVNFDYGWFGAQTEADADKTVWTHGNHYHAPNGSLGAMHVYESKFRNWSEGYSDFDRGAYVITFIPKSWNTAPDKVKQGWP

T2: DP-pNA
T2 chain: DP

T3: AAP-pNA
T3 chain: AAP

T4: AP-pNA
T4 chain: AP

T5: Z-GAP-βNA
T5 chain: GAP

T6: GP-βNA
T6 chain: GP

T7: PSFRAP-pNA
T7 chain: PSFRAP

T8: Suc-AAPF-pNA
T8 chain: AAPF

T9: AAPL-pNA
T9 chain: AAPL

T10: FRAP-pNA
T10 chain: FRAX

T11: pro-transglutaminase derived from S. mobaraense IFO13819 (transglutaminase having the pro-structure part)
T11 chain: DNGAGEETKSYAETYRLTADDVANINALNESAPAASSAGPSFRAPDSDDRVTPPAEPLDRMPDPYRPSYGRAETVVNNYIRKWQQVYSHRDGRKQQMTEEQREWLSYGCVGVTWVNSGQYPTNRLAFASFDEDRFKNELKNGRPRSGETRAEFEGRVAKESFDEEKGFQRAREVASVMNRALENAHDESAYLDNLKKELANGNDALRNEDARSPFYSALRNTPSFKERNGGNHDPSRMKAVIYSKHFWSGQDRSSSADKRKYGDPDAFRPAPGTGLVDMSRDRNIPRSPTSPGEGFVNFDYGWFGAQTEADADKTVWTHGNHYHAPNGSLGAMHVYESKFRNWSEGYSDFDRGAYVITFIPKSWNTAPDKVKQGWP

T12: Z-AGP-βNA
T12 chain: AGP

T13: Bz-FVR-pNA
T13 chain: FVR

T14: AAF-pNA
T14 chain: AAF

T15: RP-pNA
T15 chain: RP

T16: AAA-pNA
T16 chain: AAA

T17: Z-GP-βNA
T17 chain: GP

T18: AFP-pNA
T18 chain: AFP

T19: SFRAP-pNA
T19 chain: SFRAP


Key:
[1] = test system: T1, pro-transglutaminase derived from S. mobaraense IFO13819 (transglutaminase having the pro-structure part)
DP-pNA = target: T2, DP-pNA
AAP-pNA = target: T3, AAP-pNA
AP-pNA = target: T4, AP-pNA
Z-GAP-βNA = target: T5, Z-GAP-βNA
GP-βNA = target: T6, GP-βNA
PSFRAP-pNA = target: T7, PSFRAP-pNA
Suc-AAPF-pNA = target: T8, Suc-AAPF-pNA
AAPL-pNA = target: T9, AAPL-pNA
FRAP-pNA = target: T10, FRAP-pNA
[2] = target: T11, pro-transglutaminase derived from S. …
Z-AGP-βNA = target: T12, Z-AGP-βNA
Bz-FVR-pNA = target: T13, Bz-FVR-pNA
AAF-pNA = target: T14, AAF-pNA
RP-pNA = target: T15, RP-pNA
AAA-pNA = target: T16, AAA-pNA
Z-GP-βNA = target: T17, Z-GP-βNA
AFP-pNA = target: T18, AFP-pNA
SFRAP-pNA = target: T19, SFRAP-pNA

Molecule	cleavage of the pro-transglutaminases by Dispase digestion (SDS-PAGE) [1]	relative activity (%) (DP-pNA)	relative activity (%) (AAP-pNA)	relative activity (%) (AP-pNA)	relative activity (%) (Z-GAP-βNA)	relative activity (%) (GP-βNA)	relative activity (%) (PSFRAP-pNA)	relative activity (%) (Suc-AAPF-pNA)	relative activity (%) (AAPL-pNA)	relative activity (%) (FRAP-pNA)	N-terminal amino acid sequence of the cleaved transglutaminase (SAMP45 and svPEP co-secreted) [2]	relative activity (%) (Z-AGP-βNA)	relative activity (%) (Bz-FVR-pNA)	relative activity (%) (AAF-pNA)	relative activity (%) (RP-pNA)	relative activity (%) (AAA-pNA)	relative activity (%) (Z-GP-βNA)	relative activity (%) (AFP-pNA)	relative activity (%) (SFRAP-pNA)
Dispase (Boeringer Manheim Co. Ltd.)	the cleavage of the pro-transglutaminases was confirmed by SDS-PAGE																		
proline specific peptidase (svPEP) produced by S. mobaraense IFO13819 (protein) QADIKDRILKIPGMKFVEEKPYQGYRYLVMTYRQPVDHRNPGKGTFEQRFTLLHKDTDRPTVFFTSGYNVSTNPSRSEPTRIVDGNQVSMEYRFFTPSRPQPADWSKLDIWQAASDQHRLYQALKPVYGKNWLATGGSKGGMTATYFRRFYPNDMNGTVAYVAPNDVNDKEDSAYDKFFQNVGDKACRTQLNSVQREALVRRDEIVARYEKWAKENGKTFKVVGSADKAYENVVLDLVWSFWQYHLQSDCASVPATKASTDELYKFIDDISGFDGYTDQGLERFTPYYYQAGTQLGAPTVKNPHLKGVLRYPGINQPRSYVPRDIPMTFRPGAMADVDRWVREDSRNMLFVYGQNDPWSGEPFRLGKGAAARHDYRFYAPGGNHGSNIAQLVADERAKATAEVLKWAGVAPQAVQKDEKAAKPLAPFDAKLDRVKNDKQSALRP		0%	100%	0.53%	1.2%	0.4%	0.2%	0.01%	0.3%	49%	it had the same sequence as the naturally occurring transglutaminase derived from S. mobaraense having Asp as the N-terminal amino acid	0.78%	0.002%	4.1%	0.94%	8.5%	0.04%	26.3%	1.23%
